Changes are numbered by the printed parent chain. Names and notes keep the numbering of the source.
What was measured:
[1] = assay type: physicochemical
Excerpt: The IRAK-M[1–119] gene was encoded into the pMAL-c2X vector with N-terminal fusion partner MBP, separated by a Factor XA cleavage site. The R56D and Y61D mutations were achieved using this vector, a single primer (forward primer, with mutations underlined: 5’ […] 3’) and the BIO RAD-iProof High-Fidelity DNA Polymerase to generate expression plasmid pMAL-c2X encoding the MBP- IRAK-M[1-119:R56D,Y61D] fusion protein, with a Factor XA cut site between MBP and IRAK-M[1-119:R56D,Y61D]. To produce uniformly ^15N-labeled MBP-IRAK-M[1-119:R56D,Y61D] in E. coli, transformed cells were grown in M9 minimal media with ^15NH4Cl as the sole nitrogen source, and were induced at OD600 by adding 0.4 mM final concentration of IPTG at 25 °C for 20~22 h. Cells were harvested by centrifugation at 3500 g, the cell pellet was dissolved in IRAK-M wash buffer (20 mM Tris, 200 mM NaCl, 1 mM EDTA, and 0.2 mM TCEP, pH 7.4), and sonicated on ice. Cell debris was removed by centrifugation, the supernatant was incubated with 5 mL of Amylose Resin (BioLabs) pre-equilibrated with IRAK-M wash buffer. The column was washed with 4 bed volumes of IRAK-M wash buffer, and the fusion protein was eluted with 2 bed volumes of elution buffer (10 mM of Maltose added to IRAK-M wash buffer). […] IRAK-M[1-119:R56D,Y61D] concentration was measured by UV absorption at 280 nm (extinction coefficient = 25105 cm^-1 M^-1). […]

WT and PIN1 KO mice = experiment: OVA-induced allergic asthma in mice; assay type: in vivo, mouse; settings: OVA-challenged PIN1 KO vs WT mice
Experimental: Fig. 1 PIN1 is required for IL-33 to induces TH2 polarization and allergic inflammation. a 5 and15 min after IL-33 treatment of DC2.4 cells, cells were extracted and PIN1 activity was measured as previously described. Inset: PIN1 was immune precipitated and immune blotted for PIN1 or Ser71 phosphorylation as indicated. b WT and PIN1 KO MEF’s were treated with different concentrations of IL-33 for 24 h and the medium was measured for IL-6 secretion. c WT and PIN1 KO mice were treated with 200 ng/mice/day for 4 consecutive days and the BALF was examined for IL-4, 5, 6 and 13 by ELISA. d H&E staining representative of lungs from WT and PIN1 KO mice treated with IL-33 (n = 4). Scale bar = 50 µm. e Total cell number in the BALF of WT and PIN1 KO mice was measured using HEMAVET multispecies hematology analyzer. f Eosinophil cell number in the BALF of WT and PIN1 KO mice was measured using HEMAVET multispecies hematology analyzer. g Representative H&E staining of lung sections from WT and PIN1 KO mice after OVA-induced allergic asthma (n = 4). Scale bar = 50 µm. h IL-4, -5, -13 and IL-33 levels in the BALF of WT and PIN1 KO mice after OVA-induced allergic asthma. The groups were compared using Mann-Whitney U test (i) Total cell number in the BALF of WT and PIN1 KO mice before and after OVA-induced allergic asthma. The data were analyzed by a Student’s two-tailed t test unless stated otherwise, and the values are reported as mean ± standard errors of the means (SEM). *- statistical significance (P < 0.05), **- significance (P < 0.01)

IRAK-M [2] = experiment: IRAK-M nuclear localization in DC2.4 cells; assay type: cell-based, C57BL/6; settings: stably expressed in DC2.4 cells
Experimental: Suppl em enta ry Figur e 3. a DAPI IR AK-M Pin1 Mergeb […]
Supplementary Figure 3. Pin1 targets IRAK-M and promotes its nuclear translocation upon IL-33 induction.
(a) Immunostaining for IRAK-M and Pin1 in DC2.4 cells before and after IL-33 treatment. ( b) DC2.4 cells were treated with IL-33 and subjected to nuclear/cytoplasmic fractionation, followed by Western blot for IRAK-M with actin as a cytoplasmic marker and Fox1 as a nuclear marker. C- cytoplasmic; N- Nuclear.
(c) Cytospin slides from BALF of the treated WT mice as indicated, were co stained for DC205 and IRAK-M.
(d) IRAK-M or its mutants S110E or P111A were stably expressed in DC2.4 cells and their localization and Pin1 localization were monitored by immunostaining. (e) GFP-IRAK-M were expressed in Pin1 KO MEFs either with or without RFP-Pin1 as indicated, and their localization was monitored. Scale = 50 µm.
(also on this page, place not known: Control +IL-33: b DAPIe MergeGFP RFP GFP- GFP-IRAK-M/ RFP MergeIRAK-M Pin1DAPI ControlIL-33 Mergec Supplementary Figure IRAK-M IRAK-M (b) IL-33 IRAK-M IRAK-M Pin1) […]

PIN1-IRAK-M interaction = experiment: Co-immunoprecipitation of PIN1 and IRAK-M; assay type: binding; settings: stably expressing DC2.4 cells, with/without IL-33
Experimental: (§1) Fig. 2 IL-33 induces IRAK-M phosphorylation and binding to PIN1. a GST PIN1 pulldown assay with DC2.4 cell extracts either non-treated or treated with IL-33 (100 ng/ml) or LPS (100ng/ml) for 1 h. […] The cells were washed with fresh medium and treated with 100 ng/ml IL-33 for the indicated times prior to IRAK-M immunoprecipitation. d DC2.4 cells stably expressing IRAK-M were treated with IL-33 and at the indicated time points were subjected to CO-IP using anti-PIN1 antibody and blotted for IRAK-M. e HEK293 cells were transfected with different IRAK-M constructs expressing the N’ terminal domain (aa1-220), the middle portion of the protein (aa220-440) or the C’ terminal domain (aa 440-630), and then treated with IL-33, followed by CO-IP for PIN1. f DC2.4 cells stably expressing IRAK-M were treated with IL-33 and subjected to GST or GST-PIN1 pull-down.
Cells from one 10-cm dish were homogenized in lysis buffer containing 150 mM NaCl, 1% NP-40, 0.5% deoxycholate, 0.1% SDS, 50 mM Tris-HCl (pH 7.7), 1 mM phenylmethylsulfonyl fluoride (PMSF), 1 mM dithiothreitol, and protease inhibitors. Clarified supernatants were incubated with pre incubated immobilized beads rProtein A agarose beads (RepliGen) premixed with PIN1, GFP or IRAK-M antibody or, as a control, IgG overnight at 4 °C. The beads were washed extensively with lysis buffer before elution in SDS sample buffer.

IRAK-M [3] = experiment: IRAK-M protein stability, cycloheximide chase; assay type: cell-based; settings: mutant IRAK-M, WT MEFs; reproduced in DC2.4 cells
Experimental: Fig. 4 PIN1 increases IRAK-M protein stabilization. a After IRAK-M and GFP were coexpressed in WT and PIN1 KO MEFs for 24 h, cells were split equally into 5 dishes. 24 h later cells were treated with cyclohexamide and harvested to monitor IRAK-M, GFP and PIN1 levels at the time points indicated. b Quantification of 3 independent experiments as in a. c WT MEFs stably expressing the TET on inducible short hairpin for PIN1 (shPin1) or pLKO as a control, were expressed with IRAK-M, followed by induction with Doxycycline for 18 h prior to the cyclohexamide chase. d Quantification of 3 independent experiments as in c. e BMDCs from WT or PIN1 KO mice were treated with IL-33 and the levels of IRAK-M were monitored at different time points after induction. f Quantification of 3 independent experiments as in e. g PIN1 KO MEFs were expressed with IRAK-M alone or in combination with PIN1 or its mutants W34A or K63A for 24 h, followed by the cyclohexamide chase to assay IRAK-M stability. h Quantification of 3 independent experiments as in g. i IRAK-M or its different mutants; S110A, S110E and P111A were expressed in WT MEFs, followed by the cyclohexamide chase to assay IRAK-M stability. j Quantification of 3 independent experiments as in i. k IRAK-M or its different mutants were stably expressed in DC2.4 cells, followed by the cyclohexamide chase to monitor IRAK-M stability. l Quantification of 3 independent experiments as in k. The data were analyzed by a Student’s two-tailed t test and the values are reported as mean ± standard errors of the means (SEM). *- statistical significance (P < 0.05), **- significance (P < 0.01)

IRAK-M [4] = experiment: IRAK-M phosphorylation in DC2.4 cells; assay type: cell-based, C57BL/6; settings: DC2.4 stably expressing mutant, IL-33
Experimental: as §1

B1: IRAK-M[1–119]: recombinant IRAK-M residues 1–119 including the DD (protein, UniProt Q8K4B2 1-119, looked up, fragment)
chain: MAGRCGARGALSPQLLLFDLPPALLGELCGILDSCDGPLGWRGLAERLSNSWLDVRHIEKYVNQGKSGTRELLWSWAQKNKTIGDLLEVLQDMGHQRAIHLIINYGVSWTPSVQTHHEL
[1]
  solubility of cleaved protein: precipitated under all conditions explored

B2: OVA: ovalbumin (OVA), inducer of model of allergic asthma (protein, UniProt P01012 2-386, looked up)
Ovalbumin: GSIGAASMEFCFDVFKELKVHHANENIFYCPIAIMSALAMVYLGAKDSTRTQINKVVRFDKLPGFGDSIEAQCGTSVNVHSSLRDILNQITKPNDVYSFSLASRLYAEERYPILPEYLQCVKELYRGGLEPINFQTAADQARELINSWVESQTNGIIRNVLQPSSVDSQTAMVLVNAIVFKGLWEKAFKDEDTQAMPFRVTEQESKPVQMMYQIGLFRVASMASEKMKILELPFASGTMSMLVLLPDEVSGLEQLESIINFEKLTEWTSSNVMEERKIKVYLPRMKMEEKYNLTSVLMAMGITDVFSSSANLSGISSAESLKISQAVHAAHAEINEAGREVVGSAEAGVDAASVSEEFRADHPFLFCIKHIATNAVLFFGRCVSP
WT and PIN1 KO mice
  BALF total cells count: reduced BALF total cells count
  TH2 cytokine levels in BALF: reduced TH2 cytokine levels
  lung inflammation: reduced lung inflammation

B3: S110E: IRAK-M full protein phosphomimetic mutant S110E (protein)
chain: MAGNCGARGALSAHTLLFDLPPALLGELCAVLDSCDGALGWRGLAERLSSSWLDVRHIEKYVDQGKSGTRELLWSWAQKNKTIGDLLQVLQEMGHRRAIHLITNYGAVLEPSEKSYQEGGFPNILFKETANVTVDNVLIPEHNEKGILLKSSISFQNIIEGTRNFHKDFLIGEGEIFEVYRVEIQNLTYAVKLFKQEKKMQCKKHWKRFLSELEVLLLFHHPNILELAAYFTETEKFCLIYPYMRNGTLFDRLQCVGDTAPLPWHIRIGILIGISKAIHYLHNVQPCSVICGSISSANILLDDQFQPKLTDFAMAHFRSHLEHQSCTINMTSSSSKHLWYMPEEYIRQGKLSIKTDVYSFGIVIMEVLTGCRVVLDDPKHIQLRDLLRELMEKRGLDSCLSFLDKKVPPCPRNFSAKLFCLAGRCAATRAKLRPSMDEVLNTLESTQASLYFAEDPPTSLKSFRCPSPLFLENVPSIPVEDDESQNNNLLPSDEGLRIDRMTQKTPFECSQSEVMFLSLDKKPESKRNEEACNMPSSSCEESWFPKYIVPSQDLRPYKVNIDPSSEAPGHSCRSRPVESSCSSKFSWDEYEQYKKE
IRAK-M [2]
  nuclear localization of mutant IRAK-M: higher nuclear localization
PIN1-IRAK-M interaction
  PIN1 interaction (CO-IP), IRAK-M mutants: much weaker PIN1 interaction was evident before IL-33 stimulation
IRAK-M [3]
  resistance of IRAK-M to degradation: completely resistant to degradation

B4: P111A: IRAK-M mutant that eliminates the PIN1 consensus motif (protein)
chain: B3 chain with E110S, P111A
IRAK-M [4]
  IRAK-M phosphorylation (mutant): totally abolished
PIN1-IRAK-M interaction
  PIN1 interaction (CO-IP), IRAK-M mutants: totally abolished
IRAK-M [3]
  decrease of IRAK-M protein stability: ~ 50%
